Assay [1] has as its target monoclonal antibody 7C11 (anti-Bla g 2). The experiment in a line: competition ELISA. The following applies: chain shown with the change, solid phase rBla g 2-N93Q, read off a plot. For orientation: In an ELISA, binding on a coated surface is turned into a signal by an enzyme label.
The target is the same in assay [2]. The experiment in a line: ELISA dose-response. As to conditions: chain shown with the change, read off a plot.
Where [3] appears, read: competitor concentration 0.1 µg/ml, parent: est. 47.
Setting [4] is: competitor concentration 1 µg/ml, parent: est. 5.
Setting [5] is: competitor concentration 100 µg/ml, parent: est. 0.
Setting [6] is: allergen concentration 100 ng/ml (read on the curve line), parent: est. 1.8.
The mark [7] stands for this setting: competitor concentration 10 µg/ml, parent: est. 1.

Numbering of substitutions follows the chain as printed. Names and notes keep the numbering of the source.

This is an account of results in article PMC3137622.

Chain of monoclonal antibody 7C11 (anti-Bla g 2) (chain, as listed by the source, chain 2 of 2, other chains not shown): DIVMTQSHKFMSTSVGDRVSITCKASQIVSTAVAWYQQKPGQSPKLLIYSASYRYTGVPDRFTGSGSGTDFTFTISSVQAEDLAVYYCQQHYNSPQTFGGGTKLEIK

B1: recombinant Bla g 2-N93Q D68aA (protein)
chain: VPLYKLVHVFINTQYAGITKIGNQNFLTVFDSTSCNVVVASQECVGGACVCPNLQKYEKLKPKYISAGNVQVKFFDTGSAVGRGIEDSLTISQLTTSQQDIVLADELSQEVCILSADVVVGIAAPGCPNALKGKTVLENFVEENLIAPVFSIHHARFQDGEHFGEIIFGGSDWKYVDGEFTYVPLVGDDSWKFRLDGVKIGDTTVAPAGTQAIIDTSKAIIVGPKAYVNPINEAIGCVVEKTTTRRICKLDCSKIPSLPDVTFVINGRNFNISSQYYIQQNGNLCYSGFQPCGHSDHFFIGDFFVDHYYSEFNWENKTMGFGRSVESV
As to B1, the results for the other: Biotinylated mAb 7C11 bound to Bla g 2 (%) in assay [1] (setting [3]), in assay [1] (setting [4]) and in assay [1] (setting [5]) were 98%, 82% and 5%, respectively. Further, the response (Absorbance (405 nm)) in assay [2] (setting [6]) amounted to 0.48; in assay [2] (allergen concentration about 4000 ng/ml (highest point of the series; curve at plateau)) it was 0.73.

B2: recombinant Bla g 2-N93Q K65A (protein)
chain: B1 chain with K63A, A67D
With B2, the other: Biotinylated mAb 7C11 bound to Bla g 2 (%) is 91% in assay [1] (setting [3]), 47% in assay [1] (setting [4]) and 11% in assay [1] (setting [7]). Further, the response (Absorbance (405 nm)) in assay [2] (setting [6]) came out at 0.3; in assay [2] (allergen concentration about 4000 ng/ml (highest point of the series)), 1.2.

B3: recombinant Bla g 2-N93Q K132A (protein)
chain: B1 chain with A67D, K132A
Regarding B3, the other: Biotinylated mAb 7C11 bound to Bla g 2 (%) is 100% in assay [1] (setting [3]), 100% in assay [1] (setting [4]), 99% in assay [1] (setting [7]) and 70% in assay [1] (setting [5]). In addition, the response (Absorbance (405 nm)) in assay [2] (allergen concentration 100 ng/ml, parent: est. 1.8) was 0.12; in assay [2] (allergen concentration about 400 ng/ml (highest point of the series), parent: est. 1.8) it was 0.15.
